Test results published in patent publication US20220249679A1 (Mitsubishi Tanabe Pharma Corporation, priority 2018, published 2022).

T1: Human CD138 His (Homo sapiens, UniProt P18827)
T1 construct: His
T1 sequence (P18827 23-310): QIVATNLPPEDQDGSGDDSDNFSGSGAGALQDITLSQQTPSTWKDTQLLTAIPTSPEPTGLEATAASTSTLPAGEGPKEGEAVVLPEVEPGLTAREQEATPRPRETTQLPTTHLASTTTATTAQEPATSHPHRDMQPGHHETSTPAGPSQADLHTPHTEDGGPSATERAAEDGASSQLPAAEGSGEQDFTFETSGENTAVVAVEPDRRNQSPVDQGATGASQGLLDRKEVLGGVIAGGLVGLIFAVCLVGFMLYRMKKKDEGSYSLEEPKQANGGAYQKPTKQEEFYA


Molecular target: T1, Human CD138 His
Assay: SPR kinetic binding, human CD138
Details: bivalent analyte fit
Description: Murine IgGs were purified from the hybridoma supernatants and the IgGs were subject to SPR (surface plasmon resonance) for kinetic binding measurements. Human or mouse CD138 His was immobilized on a GLM chip at […] on a BioRad Proteon. […] KDs were measured using bivalent analyte fit.

hCD138 ka [M⁻¹ s⁻¹]	hCD138 kd [s⁻¹]	Molecule
107000	0.00104	F13P14D3: murine anti-CD138 hybridoma antibody; VH SEQ ID NO:86, VL SEQ ID NO:38 (antibody, listed as Mus musculus, V domains shown) VH: EVQLVESGGGLVQPKGSLKLSCATSGFTFNTYAMNWVRQAPGKGLEWVARIRSKSNNYATYYVDSVKDRFTISRDDSQSTVHLQMNNLKTEDTAIYYCVTDYGHVYFDVWGAGTTVTVSS VL: NIVMTQSPKSMSMSVGQRVTLSCKASENVGSYVSWYQQKPEQSPKLLIYGASNRNTGVPDRFTGSGSATDFTLTISSVQAEDLADYHCGQSSRYPLTFGGGTKLELKR
3.81e+06	0.033	F12P7G11: murine anti-CD138 hybridoma antibody; VH SEQ ID NO:85, VL SEQ ID NO:37 (antibody, listed as Mus musculus, V domains shown) VH: QVQLQQSGAELARPGASVKLSCKASGYTFSSHWMQWVKQRPGQGLEWIGAIYPGDGDTRFTQKFKGKATLTADKSSNTAYMQLSSLASEDSAVYYCARGIYYDRSRAMDYWGQGTSVTVSS VL: QIVLSQSPAILSASPGEKVTMTCRASSSVNYMHWYQQKPGSSPKHWIYATSYLASGVPARFSGSGSGTSYSLTISRVEAEDAATYYCQQWSSDPLTFGAGTKLELKR

Tested on: not listed separately
Assay: Size exclusion chromatography (SEC), percent monomer
Type: physicochemical
Details: Table 19, after protein A purification
Description: The antibodies were purified utilizing pH dependent, protein A purification (HiTrap MabSelect SuRe 5 mL). After purification, the antibodies were buffer exchanged into 1× DPBS using zeba spin columns. The recovery and relative stability as determined by size exclusion chromatography (SEC) analysis varied between the humanized antibodies (SEC profiles not shown). The nomenclature sometimes takes the form of hF6 xky-rep where h stands for humanized, F6 stands for F12P16F6-derived, x stands for the first letter of the first procedure used to generate the humanized heavy chain sequence (e.g., x can be a=abb, s=sdr, f=fra, or c=cdr), k stands for kappa light chain, and y stands for the first letter of the first procedure used to generate the humanized light chain sequence (a=abb, s=sdr, f=fra, c=cdr).

Molecule	SEC % Monomer [%]
F6 ckf-rep: humanized anti-CD138 antibody; VH SEQ ID NO:90, VL SEQ ID NO:43 (antibody, V domains shown, Humanized Heavy chain variable region; Humanized Light chain variable region) VH: QVQLVQSGAEVVKPGASVKLSCKASGYTFTSYYLYWVKKAPGQGLDWIGEIYPRSGGTNINEKFLSRVTLTADTSTSTAYLELSSLTSEDTAVYYCTRSLLYWGQGTTLTVSS VL: DVVMTQSPLSLSVTLGQPASISCKSSQSLLASDGKTYLNWLQQRPGQSPRRLIYLVSKLDSGVPNRFSGSGSGTDFTLQISRVEAEDVGLYYCWQGAHFPFTFGSGTKLEIKR	95.3
F6 cka-rep: humanized anti-CD138 antibody; VH SEQ ID NO:90, VL SEQ ID NO:42 (antibody, V domains shown, Humanized Heavy chain variable region; Humanized Light chain variable region) VH: QVQLVQSGAEVVKPGASVKLSCKASGYTFTSYYLYWVKKAPGQGLDWIGEIYPRSGGTNINEKFLSRVTLTADTSTSTAYLELSSLTSEDTAVYYCTRSLLYWGQGTTLTVSS VL: DVVMTQTPLSLSVTPGQPASISCKSSQSLLASDGKTYLNWLLQRPGQSPKRLIYLVSKLDSGVPNRFSGSGSGTDFTLQISRVEAEDVGLYYCMQGAHFPFTFGGGTKVEIKR	88.8
F6 f2ks-rep: humanized anti-CD138 antibody; VH SEQ ID NO:92, VL SEQ ID NO:41 (antibody, V domains shown, Humanized Heavy chain variable region; Humanized Light chain variable region) VH: QVQLQQSGAEVVKPGASVKLSCKASGYTFTSYYLYWVKKAPGQGLDWIGEIYPRSGGTNINEKFLSRVTITADESTSTVYMQLSSLTSEDSAVYYCTRSLLYWGQGTTLTVSS VL: DVVMTQTPLSLSVTPGQPASISCKSSQSLLASDGKTYLNWLLQRPGQSPKRLIYLVSKLDSGVPNRFSGSGSGTDFTLQISRVEAEDVGLYYCWQGAHFPFTFGSGTKLEIKR	77.6
F6 aks-rep: humanized anti-CD138 antibody; VH SEQ ID NO:89, VL SEQ ID NO:41 (antibody, V domains shown, Humanized Heavy chain variable region; Humanized Light chain variable region) VH: QVQLVQSGAEVVKPGASVKLSCKASGYTFTSYYLYWVKKAPGQGLDWIGEIYPRSGGTNYAEKFQGRVTLTADTSTSTAYLELSSLTSEDTAVYYCTRSLLYWGQGTTLTVSS VL: DVVMTQTPLSLSVTPGQPASISCKSSQSLLASDGKTYLNWLLQRPGQSPKRLIYLVSKLDSGVPNRFSGSGSGTDFTLQISRVEAEDVGLYYCWQGAHFPFTFGSGTKLEIKR	95.2
F6 f1ka-rep: humanized anti-CD138 antibody; VH SEQ ID NO:91, VL SEQ ID NO:42 (antibody, V domains shown, Humanized Heavy chain variable region; Humanized Light chain variable region) VH: QVQLQQSGAEVVKPGASVKLSCKASGYTFTSYYLYWVKKAPGQGLDWIGEIYPRSGGTNINEKFLSRVTLTADTSTSTAYMDLSSLTSEDTAVYYCTRSLLYWGQGTTLTVSS VL: DVVMTQTPLSLSVTPGQPASISCKSSQSLLASDGKTYLNWLLQRPGQSPKRLIYLVSKLDSGVPNRFSGSGSGTDFTLQISRVEAEDVGLYYCMQGAHFPFTFGGGTKVEIKR	92.9
F6 akf-rep: humanized anti-CD138 antibody; VH SEQ ID NO:89, VL SEQ ID NO:43 (antibody, V domains shown, Humanized Heavy chain variable region; Humanized Light chain variable region) VH: QVQLVQSGAEVVKPGASVKLSCKASGYTFTSYYLYWVKKAPGQGLDWIGEIYPRSGGTNYAEKFQGRVTLTADTSTSTAYLELSSLTSEDTAVYYCTRSLLYWGQGTTLTVSS VL: DVVMTQSPLSLSVTLGQPASISCKSSQSLLASDGKTYLNWLQQRPGQSPRRLIYLVSKLDSGVPNRFSGSGSGTDFTLQISRVEAEDVGLYYCWQGAHFPFTFGSGTKLEIKR	95.4
F6 aka-rep: humanized anti-CD138 antibody; VH SEQ ID NO:89, VL SEQ ID NO:42 (antibody, V domains shown, Humanized Heavy chain variable region; Humanized Light chain variable region) VH: QVQLVQSGAEVVKPGASVKLSCKASGYTFTSYYLYWVKKAPGQGLDWIGEIYPRSGGTNYAEKFQGRVTLTADTSTSTAYLELSSLTSEDTAVYYCTRSLLYWGQGTTLTVSS VL: DVVMTQTPLSLSVTPGQPASISCKSSQSLLASDGKTYLNWLLQRPGQSPKRLIYLVSKLDSGVPNRFSGSGSGTDFTLQISRVEAEDVGLYYCMQGAHFPFTFGGGTKVEIKR	75.2
F6 f2kf-rep: humanized anti-CD138 antibody; VH SEQ ID NO:92, VL SEQ ID NO:43 (antibody, V domains shown, Humanized Heavy chain variable region; Humanized Light chain variable region) VH: QVQLQQSGAEVVKPGASVKLSCKASGYTFTSYYLYWVKKAPGQGLDWIGEIYPRSGGTNINEKFLSRVTITADESTSTVYMQLSSLTSEDSAVYYCTRSLLYWGQGTTLTVSS VL: DVVMTQSPLSLSVTLGQPASISCKSSQSLLASDGKTYLNWLQQRPGQSPRRLIYLVSKLDSGVPNRFSGSGSGTDFTLQISRVEAEDVGLYYCWQGAHFPFTFGSGTKLEIKR	95.1
F6 f1kf-rep: humanized anti-CD138 antibody; VH SEQ ID NO:91, VL SEQ ID NO:43 (antibody, V domains shown, Humanized Heavy chain variable region; Humanized Light chain variable region) VH: QVQLQQSGAEVVKPGASVKLSCKASGYTFTSYYLYWVKKAPGQGLDWIGEIYPRSGGTNINEKFLSRVTLTADTSTSTAYMDLSSLTSEDTAVYYCTRSLLYWGQGTTLTVSS VL: DVVMTQSPLSLSVTLGQPASISCKSSQSLLASDGKTYLNWLQQRPGQSPRRLIYLVSKLDSGVPNRFSGSGSGTDFTLQISRVEAEDVGLYYCWQGAHFPFTFGSGTKLEIKR	94.3
F6 f1ks-rep: humanized anti-CD138 antibody; VH SEQ ID NO:91, VL SEQ ID NO:41 (antibody, V domains shown, Humanized Heavy chain variable region; Humanized Light chain variable region) VH: QVQLQQSGAEVVKPGASVKLSCKASGYTFTSYYLYWVKKAPGQGLDWIGEIYPRSGGTNINEKFLSRVTLTADTSTSTAYMDLSSLTSEDTAVYYCTRSLLYWGQGTTLTVSS VL: DVVMTQTPLSLSVTPGQPASISCKSSQSLLASDGKTYLNWLLQRPGQSPKRLIYLVSKLDSGVPNRFSGSGSGTDFTLQISRVEAEDVGLYYCWQGAHFPFTFGSGTKLEIKR	95.6

Same assay, conditions: Table 19, after protein A purification; listed as F6 f2ka-rep (Lot 1)

Molecule	SEC % Monomer [%]
F6 f2ka-rep: humanized anti-CD138 antibody; VH SEQ ID NO:92, VL SEQ ID NO:42; two lots (antibody, V domains shown, Humanized Heavy chain variable region; Humanized Light chain variable region, humanized anti-CD138 antibody; two lots) VH: QVQLQQSGAEVVKPGASVKLSCKASGYTFTSYYLYWVKKAPGQGLDWIGEIYPRSGGTNINEKFLSRVTITADESTSTVYMQLSSLTSEDSAVYYCTRSLLYWGQGTTLTVSS VL: DVVMTQTPLSLSVTPGQPASISCKSSQSLLASDGKTYLNWLLQRPGQSPKRLIYLVSKLDSGVPNRFSGSGSGTDFTLQISRVEAEDVGLYYCMQGAHFPFTFGGGTKVEIKR	79.1

Same assay, conditions: Table 19, after protein A purification; listed as F6 f2ka-rep (Lot 2)

Molecule	SEC % Monomer [%]
F6 f2ka-rep: humanized anti-CD138 antibody; VH SEQ ID NO:92, VL SEQ ID NO:42; two lots (antibody, V domains shown, Humanized Heavy chain variable region; Humanized Light chain variable region, humanized anti-CD138 antibody; two lots) VH: QVQLQQSGAEVVKPGASVKLSCKASGYTFTSYYLYWVKKAPGQGLDWIGEIYPRSGGTNINEKFLSRVTITADESTSTVYMQLSSLTSEDSAVYYCTRSLLYWGQGTTLTVSS VL: DVVMTQTPLSLSVTPGQPASISCKSSQSLLASDGKTYLNWLLQRPGQSPKRLIYLVSKLDSGVPNRFSGSGSGTDFTLQISRVEAEDVGLYYCMQGAHFPFTFGGGTKVEIKR	95
